Measured values: patent publication US20260184783A1 (Merck Sharp & Dohme, published 2026)

T1: human LAG-3-hFc (human, UniProt P18627 23-450)
T1 construct: also called human LAG3-Fc; Human LAG-3-Fc; not shown: human Fc
T1 sequence: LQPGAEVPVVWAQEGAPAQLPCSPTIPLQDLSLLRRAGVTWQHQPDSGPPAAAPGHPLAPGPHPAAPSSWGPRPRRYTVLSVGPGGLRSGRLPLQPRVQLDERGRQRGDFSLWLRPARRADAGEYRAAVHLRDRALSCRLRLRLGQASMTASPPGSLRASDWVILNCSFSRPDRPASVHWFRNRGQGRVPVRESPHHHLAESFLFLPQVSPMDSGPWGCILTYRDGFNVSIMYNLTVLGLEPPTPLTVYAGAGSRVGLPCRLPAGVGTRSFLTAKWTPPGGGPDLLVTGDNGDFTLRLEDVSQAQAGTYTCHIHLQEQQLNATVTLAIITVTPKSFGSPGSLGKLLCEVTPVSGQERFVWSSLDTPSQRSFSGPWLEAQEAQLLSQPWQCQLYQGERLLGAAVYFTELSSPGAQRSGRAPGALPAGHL

T2: human LAG-3 expressed on cells (human, UniProt P18627 23-525)
T2 construct: the transgene used on the cells is not tied to it by number; also called hLAG-3; 3A9.hLAG-3
T2 sequence: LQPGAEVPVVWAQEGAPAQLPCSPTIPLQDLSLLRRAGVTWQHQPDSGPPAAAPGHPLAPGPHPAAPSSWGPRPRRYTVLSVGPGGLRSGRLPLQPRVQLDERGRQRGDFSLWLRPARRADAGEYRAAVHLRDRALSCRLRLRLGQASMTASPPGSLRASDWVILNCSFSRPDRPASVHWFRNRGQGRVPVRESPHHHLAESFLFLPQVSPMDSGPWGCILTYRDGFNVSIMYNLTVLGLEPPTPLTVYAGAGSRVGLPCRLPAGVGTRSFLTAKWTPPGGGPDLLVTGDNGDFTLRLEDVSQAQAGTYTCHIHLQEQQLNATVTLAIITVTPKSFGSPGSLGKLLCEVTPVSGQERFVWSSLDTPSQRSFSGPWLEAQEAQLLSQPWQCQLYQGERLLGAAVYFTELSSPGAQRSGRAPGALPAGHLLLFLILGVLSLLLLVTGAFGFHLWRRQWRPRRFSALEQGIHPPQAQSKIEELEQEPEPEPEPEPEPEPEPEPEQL


Experiments:
[1] = target: T1, human LAG-3-hFc; experiment: SPR, Biacore T100; human LAG3-hFc captured on anti-human IgG(Fc), Nanobody as analyte; Langmuir with mass transport
Experimental: Kinetic analysis of Nanobodies was performed by surface plasmon resonance (SPR) technology, using the Biacore T100 instrument (GE Healthcare). HBS-EP+(0.01 M HEPES pH 7.4, 0.15 M NaCl, 3 mM EDTA, 0.05% v/v Surfactant P20) was used as running buffer and the experiments were performed at 25° C. Two flow channels of a Series S Sensor Chip CM5 were activated with EDC (200 mM)/NHS (50 mM) and anti-Human IgG(Fc) (GE Healthcare, BR100839) was injected at 5 μg/ml in the supplied immobilization buffer (10 mM sodium acetate pH5.0) to render immobilization levels of approximately 2000 R U. After immobilization, surfaces were deactivated with 1M ethanolamine/HCl (pH 8.5). The flow rate during the sensor preparation was set on 5 μL/min.
Sensorgram processing and data analysis was performed with Biacore T100 Evaluation Software Version 2.0.4 (GE Healthcare). […] Processed curves were evaluated via fitting with the model ‘Langmuir with Mass Transport’.

[2] = target: T1, human LAG-3-hFc; experiment: flow cytometry competition: blockade of 40 nM human LAG-3-hFc binding to MHC class II on Daudi cells; PE goat anti-human IgG
Experimental: A Nanobody dilution series was prepared in assay buffer: HBSS/2% FBS. Prior to the experiment, Fc receptors on the Daudi cells were blocked with human Fc block (BD Pharmingen, 564220) and 5 μg/mL goat IgG (Jackson ImmunoResearch, 005-000-003) for 30 minutes at 4° C. […] 1×10⁵ cells/well were seeded in V-bottom 96-well plates and resuspended in 100 μL/well of the Nanobody/ligand dilution. After 30 minutes incubation at 4° C., the cells were washed and resuspended in 100 μL/well PE-labeled Goat anti-human IgG (Southern Biotech, 2043-09). Samples were incubated for 15 minutes at 4° C., washed, and resuspended in 100 μL/well of 5 nM TOPRO3 (LifeTechnologies, T3606) solution before analysis on FACS CANTO II (BD).

[3] = target: T2, human LAG-3 expressed on cells; experiment: flow cytometry on 3A9 cells expressing human LAG-3; anti-FLAG + PE goat anti-mouse
Experimental: (§1) Binding to cell-expressed human LAG-3 was evaluated on human LAG-3 over-expressing 3A9 cells. A Nanobody dilution series was prepared in assay buffer: PBS/10% FBS/0.05% sodium azide. 1×10⁵ cells/well were transferred to a 96-well V-bottom plate and resuspended in 100 μL Nanobody dilution. After 30 minutes incubation at 4° C., the cells were washed with 100 μL/well assay buffer and resuspended in 100 μL/well of 1 μg/ml anti-FLAG (Sigma, F1804). […] Samples were incubated for 30 minutes at 4° C., washed, and resuspended in 100 μL/well of 5 nM TOPRO3 (LifeTechnologies, T3606) solution before analysis on FACS CANTO II (BD).

[4] = target: T3, human PD-1 expressed on cells (human, UniProt Q15116 25-288); experiment: cell-based or functional assay
[5] = target: T3, human PD-1 expressed on cells; experiment: flow cytometry competition: blockade of human PD-L1-hFc binding to CHO-K1 cells expressing human PD-1; PE goat anti-human IgG
Experimental: (§2) Ligand competition assays were performed on human PD-1 over-expressing CHO cells. A Nanobody dilution series was prepared in assay buffer: PBS/10% FBS/0.05% sodium azide. […] 2×10⁴ cells/well were seeded in V-bottom 96-well plates and resuspended in 200 μL/well of the Nanobody/ligand dilution. After 90 minutes incubation at 4° C., the cells were washed with 100 μL/well assay buffer and resuspended in 100 μL/well PE-labeled Goat anti-human IgG (Southern Biotech, 2043-09). Samples were incubated for 30 minutes at 4° C., washed, and resuspended in 100 μL/well of 5 nM TOPRO3 (LifeTechnologies, T3606) solution before analysis on FACS CANTO II (BD).

[6] = target: T3, human PD-1 expressed on cells; experiment: flow cytometry competition: blockade of human PD-L2-hFc binding to CHO-K1 cells expressing human PD-1; PE goat anti-human IgG
Experimental: as §2

[7] = target: T3, human PD-1 expressed on cells; experiment: flow cytometry on CHO-K1 cells expressing human PD-1; anti-FLAG + PE goat anti-mouse
Experimental: as §1, with “PD-1” for “LAG-3”, “CHO” for “3A9”, “F1804) or anti-HIS (AbD Serotec, MCA 1396).” for “F1804).”

[8] = target: T4, human PD-1-hFc (human, UniProt Q15116 25-170); experiment: SPR, Biacore T100; hPD-1-hFc immobilised on CM5, Nanobody as analyte; Langmuir with mass transport
T4 construct: also called hPD-1-hFc; hPD1-hFc; not shown: human Fc
Experimental: (§3) Kinetic analysis of the Nanobodies was performed by SPR technology, using the Biacore T100 instrument (GE Healthcare). HBS-EP+(0.01 M HEPES pH 7.4, 0.15 M NaCl, 3 mM EDTA, 0.05% v/v Surfactant P20) was used as running buffer and the experiments were performed at 25° C. Two flow channels of a Series S Sensor Chip CM5 were activated with EDC (200 mM)/NHS (50 mM). hPD-1-hFc was injected (4 times) at 5 μg/ml in suitable immobilization buffer (10 mM sodium acetate pH4.5) over one surface to render immobilization levels of 303 RU. After immobilization, surfaces were deactivated with 1M ethanolamine/HCl (pH 8.5). The flow rate during the sensor preparation was set on 5 μl/min.
(§4) After each cycle (i.e. before a new Nanobody injection step) the hPD1-hFc surfaces were regenerated with a 1 minute injection 10 mM Glycine pH1.5 at 45 μl/min. Sensorgram processing and data analysis was performed with Biacore T100 Evaluation Software Version 2.0.4 (GE Healthcare). Sensorgrams showing Nanobody binding were obtained after double referencing by subtracting 1) non-specific binding to reference flow channel and 2) HBS-EP+injection. Processed curves were evaluated via fitting with the model ‘Langmuir with Mass Transport’.

[9] = target: T4, human PD-1-hFc; experiment: SPR, Biacore T100; hPD-1-hFc immobilised on CM5 (303 RU), Nanobody as analyte; Langmuir with mass transport
Experimental: as §3, §4

T3 sequence (Q15116 25-288 limits assumed): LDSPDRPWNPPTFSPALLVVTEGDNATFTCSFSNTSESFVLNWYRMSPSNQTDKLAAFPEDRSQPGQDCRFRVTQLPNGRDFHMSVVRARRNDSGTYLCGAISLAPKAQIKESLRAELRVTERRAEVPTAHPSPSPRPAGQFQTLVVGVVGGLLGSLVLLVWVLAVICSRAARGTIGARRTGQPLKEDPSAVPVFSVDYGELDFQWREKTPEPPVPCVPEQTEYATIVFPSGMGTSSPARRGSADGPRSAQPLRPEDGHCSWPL
T4 sequence (Q15116 25-170 limits assumed): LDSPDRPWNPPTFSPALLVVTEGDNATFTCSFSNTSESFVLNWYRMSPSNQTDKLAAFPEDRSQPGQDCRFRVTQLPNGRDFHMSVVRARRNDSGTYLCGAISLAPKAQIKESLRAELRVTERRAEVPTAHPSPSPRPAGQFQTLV

Row | IC50 (read off the curve) [5] [nM] | IC50 (read off the curve) [6] [nM] | Kd [8] [nM] | koff [8] [s⁻¹] | kon [8] [M⁻¹ s⁻¹] | Kd [9] [nM] | koff [9] [s⁻¹] | kon [9] [M⁻¹ s⁻¹] | Binder | further results
1 |  |  |  |  |  |  |  |  | F023700842 (F0237611B09(L11V, A14P, R41P, N43K, A62S, A74S, K83R, V89L)-FLAG3-HIS6) (VHH, also called F023700842-FLAG3-HIS6) VHH: EVQLVESGGGVVQPGGSLRLSCAASGRTFSDYVMGWFRQAPGKEREFVAAISESGGRTHYADSVKGRFTISRDNSKNTLYLQMNSLRPEDTALYYCATTLLWWTSEYAPIKANDYDYWGQGTLVTVSS | Kd [1]: 21 nM; koff [1]: 0.019 s⁻¹; kon [1]: 920000 M⁻¹ s⁻¹; IC50 (read off the curve) [2]: ~30 nM; EC50 (read off the curve) [3]: ~2 nM
2 |  |  |  |  |  |  |  |  | F0237611B09-FLAG3-HIS6 (VHH, original monovalent anti-human LAG-3 Nanobody; also called F0237611B09-FLAG-His6) VHH: EVQLVESGGGLVQAGGSLRLSCAASGRTFSDYVMGWFRQARGNEREFVAAISESGGRTHYADAVKGRFTISRDNAKNTLYLQMNSLKPEDTAVYYCATTLLWWTSEYAPIKANDYDYWGQGTLVTVSS | IC50 (read off the curve) [2]: ~20 nM; EC50 (read off the curve) [3]: ~2 nM
3 | ~0.6 | ~0.6 |  |  |  |  |  |  | F023700706 (1PD102C12 (L11V, A14P, A74S, K83R, I89L)-FLAG3-HIS6) (VHH, also called SO 1PD102C12 monomer) VHH: EVQLVESGGGVVQPGGSLRLSCAASGSIASIHAMGWFRQAPGKEREFVAVITWSGGITYYADSVKGRFTISRDNSKNTVYLQMNSLRPEDTALYYCAGDKHQSSWYDYWGQGTLVTVSS | EC50 (read off the curve), IL-2 promoter luciferase RLU [4]: ~0.9 nM; EC50 (read off the curve) [7]: ~0.9 nM
4 | ~1 | ~0.9 | 1.3 | 0.0032 | 2.5e+06 | 1.3 | 0.0032 | 2.5e+06 | F023701192 (1PD102C12 (E1D, L11V, A14P, W52aV, N73Q, A74S, K83R, I89L, W100aF)-HIS6) (VHH, monovalent anti-human PD-1 Nanobody variant; not shown: C-terminal HIS6 tag) VHH: DVQLVESGGGVVQPGGSLRLSCAASGSIASIHAMGWFRQAPGKEREFVAVITVSGGITYYADSVKGRFTISRDQSKNTVYLQMNSLRPEDTALYYCAGDKHQSSFYDYWGQGTLVTVSS | 
5 | ~1 | ~0.9 |  |  |  |  |  |  | F023701190 (1PD102C12 (E1D, L11V, A14P, W52aV, A74S, K83R, I89L, W100aF)-HIS6) (VHH, monovalent anti-human PD-1 Nanobody variant; also called Enhanced SO 1PD102C12 monomer; not shown: C-terminal HIS6 tag) VHH: DVQLVESGGGVVQPGGSLRLSCAASGSIASIHAMGWFRQAPGKEREFVAVITVSGGITYYADSVKGRFTISRDNSKNTVYLQMNSLRPEDTALYYCAGDKHQSSFYDYWGQGTLVTVSS | 
6 | ~1 | ~1 | 0.29 | 0.00059 | 2e+06 | 0.29 | 0.00059 | 2e+06 | F023700929 (1PD102C12 (L11V, A14P, A74S, K83R, I89L)-HIS6) (VHH, not shown: C-terminal HIS6 tag) VHH: EVQLVESGGGVVQPGGSLRLSCAASGSIASIHAMGWFRQAPGKEREFVAVITWSGGITYYADSVKGRFTISRDNSKNTVYLQMNSLRPEDTALYYCAGDKHQSSWYDYWGQGTLVTVSS | 
7 | ~1 | ~0.9 | 2.4 | 0.0075 | 3.2e+06 | 2.4 | 0.0075 | 3.2e+06 | F023701193 (1PD102C12 (E1D, L11V, A14P, W52aV, N73P, A74S, K83R, I89L, W100aF)-HIS6) (VHH, monovalent anti-human PD-1 Nanobody variant; not shown: C-terminal HIS6 tag) VHH: DVQLVESGGGVVQPGGSLRLSCAASGSIASIHAMGWFRQAPGKEREFVAVITVSGGITYYADSVKGRFTISRDPSKNTVYLQMNSLRPEDTALYYCAGDKHQSSFYDYWGQGTLVTVSS | 
8 | ~0.3 | ~0.3 |  |  |  |  |  |  | F023700275 (1PD102C12(A14P, A74S, K83R)-FLAG3-HIS6) (VHH, monovalent anti-human PD-1 Nanobody, parent of F023700706) VHH: EVQLVESGGGLVQPGGSLRLSCAASGSIASIHAMGWFRQAPGKEREFVAVITWSGGITYYADSVKGRFTISRDNSKNTVYLQMNSLRPEDTAIYYCAGDKHQSSWYDYWGQGTLVTVSS | EC50 (read off the curve) [7]: ~0.9 nM
